Experimental data taken from patent US20140322204A1.

Experiments:
412-423 branched peptide = 412-423 branched peptide (UniProt P27958); test: antibody titration on the branched peptide (FIG. 10)
[1] = target: H77 E1E2 mutant N415A (Hepatitis C virus genotype 1a strain H77) (UniProt P27958); test: GNA capture EIA of E1E2 from HEK 293T cells
[2] = target: H77 E1E2 mutant W420A (Hepatitis C virus genotype 1a strain H77) (UniProt P27958); test: GNA capture EIA of E1E2 from HEK 293T cells
[3] = target: H77 E1E2 mutant L413A (Hepatitis C virus genotype 1a strain H77) (UniProt P27958); test: GNA capture EIA of E1E2 from HEK 293T cells
[4] = target: H77 E1E2 mutant Q412A (Hepatitis C virus genotype 1a strain H77) (UniProt P27958); test: GNA capture EIA of E1E2 from HEK 293T cells
[5] = target: H77 E1E2 mutant G418A (Hepatitis C virus genotype 1a strain H77) (UniProt P27958); test: GNA capture EIA of E1E2 from HEK 293T cells
[6] = target: E1E2 of HCV genotype 3a isolate UKN3A13.6 (Hepatitis C virus genotype 3a); test: cell-based or functional assay
[7] = target: E1E2 of HCV genotype 5 isolate UKN5.15.11 (Hepatitis C virus genotype 5); test: cell-based or functional assay

monoclonal antibody AP33
fold lower concentration required to obtain 50% binding, against MAb 3/11 (412-423 branched peptide): > 10 fold
reduction of binding compared to wild type [1]: > 75%
reduction of binding compared to wild type [2]: > 75%
reduction of binding compared to wild type [3]: > 75%
enhancement of binding compared to wild type [4]: 50%
reduction of binding compared to wild type [5]: > 75%
IC50 of HCVpp neutralisation (ug/ml (printed p.g/ml)) [6]: 22
IC50 of HCVpp neutralisation (ug/ml (printed p.g/ml)) [7]: 0.6
